Here are results for one protein from paper doi:10.1101/462036 (bioRxiv, 2018).

This series concerns the molecule itself. Put plainly: SEC.

B1: RIG-5 IG1 (purified, hexahistidine tag) (domain or fragment)
chain: GAPPTIQQPSMSSAVALLGQDVDFTCIVNDLGSHMVAFVKADSPPRLLSFDEKVFRRRNKYELKPRIGDLHNEWVLTIKNVQESDRGNYSCQINTEPITLSTGELDVKVP
modifications: one N-linked glycan per monomer
B1: the “stoichiometry N” value turned out to be 2.
